Test results: paper PMC4844672 (Nature Communications, 2016)

What was measured:
[1] = biological target: GbLFY-SAM (N-terminal SAM domain of Ginkgo biloba LEAFY, wild type) (Ginkgo biloba); test: SEC-MALS; SEC-MALLS on Superdex-200 10/300GL in buffer A, 20 °C, 0.5 ml/min; 50 µl at ~4.5 mg/ml injected; [RE+TE] is an equimolar mixture of the TE and RE mutants
[2] = biological target: the molecule itself; test: SEC; Superdex-200 10/300GL in buffer A, 4 °C, calibrated with protein standards; molecular mass estimated at different protein concentrations
AtLFY = biological target: T1, AtLFY (Arabidopsis thaliana, UniProt Q00958 1-420); test: EMSA; 500 nM; behaves like GbLFYΔ; EMSA: 20 mM Tris-HCl pH 7.5, 150 mM NaCl, 1% glycerol, 0.25 mM EDTA, 2 mM MgCl2, 0.01% Tween-20, 3 mM TCEP, 28 ng/ml fish sperm DNA, 10 nM probe, 25-500 nM prot
T1 sequence: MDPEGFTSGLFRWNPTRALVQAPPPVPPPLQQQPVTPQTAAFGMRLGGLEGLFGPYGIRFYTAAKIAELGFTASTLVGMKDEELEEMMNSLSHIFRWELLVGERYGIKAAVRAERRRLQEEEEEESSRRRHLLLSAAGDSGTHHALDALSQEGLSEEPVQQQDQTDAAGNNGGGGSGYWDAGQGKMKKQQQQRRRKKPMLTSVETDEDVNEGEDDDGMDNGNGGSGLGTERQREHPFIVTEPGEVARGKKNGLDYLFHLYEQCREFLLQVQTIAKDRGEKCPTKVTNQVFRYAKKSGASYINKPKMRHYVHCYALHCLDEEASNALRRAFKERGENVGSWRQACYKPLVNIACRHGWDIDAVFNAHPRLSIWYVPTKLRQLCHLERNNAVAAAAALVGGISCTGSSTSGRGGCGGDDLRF

For “GbLFY-SAM (N-terminal SAM domain of Ginkgo biloba LEAFY, wild type) (domain or fragment)”, the stoichiometry N [1] was < 8 monomers.

B1: AtLFY-SAM (SAM domain of A. thaliana LEAFY) (domain or fragment, Arabidopsis thaliana, UniProt Q00958 38-151, looked up)
chain: QTAAFGMRLGGLEGLFGPYGIRFYTAAKIAELGFTASTLVGMKDEELEEMMNSLSHIFRWELLVGERYGIKAAVRAERRRLQEEEEEESSRRRHLLLSAAGDSGTHHALDALSQ
notes: LEAFY (LFY) of Arabidopsis thaliana, residues 38-151 of the A. thaliana LFY cDNA (plasmid pETH201, vector pETM-11); also called SAM domain of A. thaliana LFY; source: E. coli Rosetta2 (DE3), purified (Ni-Sepharose, TEV cleavage, Superdex-200); not shown: 6 x His, N-terminal, cleaved
B1: binds [2].

B2: AGI-II (dsDNA)
DNA 1: CGTTTAAATTTAATCCAATGGTTACAATTTTAATACTATCAAATGTCTATTGGATTTATACCCAATGTGTTAATGGGTTG
DNA 2: CAACCCATTAACACATTGGGTATAAATCCAATAGACATTTGATAGTATTAAAATTGTAACCATTGGATTAAATTTAAACG
B2: binds (AtLFY).
